Experimental data from PMC6773726, “The ubiquitin-like modifier FAT10 interferes with SUMO activation” (Nature Communications, 2019).

T1: AOS1/UBA2, heterodimeric SUMO E1 activating enzyme, recombinant (human, UniProt Q9UBE0 1-346; Q9UBT2 1-640)
T1 construct: expressed from pET11d-UBA2; The N-terminal end of the His tag follows from the printed offset of +23 aa; also called SAE1/SAE2; not shown: 6His, N-terminal, kept
T1 sequence (looked up) 1: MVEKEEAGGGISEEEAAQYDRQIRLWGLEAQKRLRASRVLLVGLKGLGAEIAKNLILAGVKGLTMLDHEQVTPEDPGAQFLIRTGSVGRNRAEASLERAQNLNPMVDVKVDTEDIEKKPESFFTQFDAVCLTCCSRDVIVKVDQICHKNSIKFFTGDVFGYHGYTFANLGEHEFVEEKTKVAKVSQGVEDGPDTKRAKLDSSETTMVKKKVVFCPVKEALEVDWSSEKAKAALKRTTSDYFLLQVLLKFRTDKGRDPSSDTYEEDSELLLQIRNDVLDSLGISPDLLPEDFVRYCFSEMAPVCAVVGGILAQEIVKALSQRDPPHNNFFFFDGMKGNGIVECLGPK
T1 sequence (looked up) 2: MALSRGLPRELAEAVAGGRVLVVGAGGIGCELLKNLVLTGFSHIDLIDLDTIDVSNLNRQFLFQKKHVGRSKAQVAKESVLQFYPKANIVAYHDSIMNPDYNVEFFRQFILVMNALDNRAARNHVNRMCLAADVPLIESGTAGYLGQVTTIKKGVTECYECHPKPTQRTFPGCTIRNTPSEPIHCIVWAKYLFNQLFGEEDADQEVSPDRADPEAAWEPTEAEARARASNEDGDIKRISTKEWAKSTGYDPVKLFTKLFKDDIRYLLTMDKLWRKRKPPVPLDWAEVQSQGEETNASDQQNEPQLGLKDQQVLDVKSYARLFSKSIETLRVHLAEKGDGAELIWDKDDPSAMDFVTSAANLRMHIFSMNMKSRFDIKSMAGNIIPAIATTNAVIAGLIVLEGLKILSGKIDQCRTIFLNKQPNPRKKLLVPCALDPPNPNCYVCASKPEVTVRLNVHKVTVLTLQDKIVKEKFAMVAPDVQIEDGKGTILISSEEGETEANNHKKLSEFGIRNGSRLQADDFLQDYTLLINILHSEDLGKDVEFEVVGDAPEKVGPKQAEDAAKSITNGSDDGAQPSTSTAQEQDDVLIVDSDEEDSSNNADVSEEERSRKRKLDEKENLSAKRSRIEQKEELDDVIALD


Key:
[1] = molecular target: T1, AOS1/UBA2, heterodimeric SUMO E1 …; assay: co-IP; recombinant proteins: 25 nM AOS1/UBA2 with 0.7 uM of each FAT10 variant in in vitro buffer without ATP; FAT10 precipitated with the antibody 4F1 on protein A sepharose, 3 h at 8 °C; blots for the E1 subunits; settings: both partners purified
[2] = molecular target: T1, AOS1/UBA2, heterodimeric SUMO E1 …; assay: BLI; Octet (Forte Bio); sensors loaded with 0.1 mg/ml AOS1/UBA2; GST-FAT10 at 0.5, 0.25, 0.1 and 0.05 mg/ml measured versus GST; buffer TNT (50 mM Tris HCl pH 7.6, 100 mM NaCl, 0.1% Triton X-100); association 600 s, dissociation 600 s; settings: both partners purified

| binding result [1] | Kd [2] [nM] | Binder |
| --- | --- | --- |
| binds |  | FAT10, recombinant, untagged (natural protein, human, UniProt O15205 2-165, looked up, FAT10 (ubiquitin D, UBD), human; also called wild-type FAT10; source: E. coli BL21(DE3) (pSUMO-FAT10), purified (HisTrap, tag removal with ULP-1, cation exchange)) APNASCLCVHVRSEEWDLMTFDANPYDSVKKIKEHVRSKTKVPVQDQVLLLGSKILKPRRSLSSYGIDKEKTIHLTLKVVKPSDEELPLFLVESGDEAKRHLLQVRRSSSVAQVKAMIETKTGIIPETQIVTCNGKRLEDGKMMADYGIRKGNLLFLACYCIGG |
| binds |  | FAT10-AV, recombinant, untagged (natural protein, human, UniProt O15205 2-165, looked up, FAT10 (ubiquitin D, UBD), human, C-terminal diglycine motif changed from GG to AV; also called FAT10 diglycine mutant FAT10-AV; source: E. coli BL21(DE3) (pSUMO-FAT10-AV), purified (HisTrap, tag removal with ULP-1, cation exchange)) APNASCLCVHVRSEEWDLMTFDANPYDSVKKIKEHVRSKTKVPVQDQVLLLGSKILKPRRSLSSYGIDKEKTIHLTLKVVKPSDEELPLFLVESGDEAKRHLLQVRRSSSVAQVKAMIETKTGIIPETQIVTCNGKRLEDGKMMADYGIRKGNLLFLACYCIAV |
|  | 1800 | GST-FAT10 (natural protein, human, UniProt O15205 1-165, looked up, FAT10 (ubiquitin D, UBD), human; also called FAT10 (in the sentence that gives the Kd); source: E. coli BL21(DE3) (pGEX4T-3-FAT10), purified (glutathione agarose, PD-10 desalting)) MAPNASCLCVHVRSEEWDLMTFDANPYDSVKKIKEHVRSKTKVPVQDQVLLLGSKILKPRRSLSSYGIDKEKTIHLTLKVVKPSDEELPLFLVESGDEAKRHLLQVRRSSSVAQVKAMIETKTGIIPETQIVTCNGKRLEDGKMMADYGIRKGNLLFLACYCIGG |
